Measurements as given in patent US20250122266A1 (TEXAS A AND M UNIVERSITY SYSTEM, published 2025).

Assays:
NE-tethered mCh-lamin A [1] = target: T1, NE-tethered mCh-lamin A (UniProt P02545 1-664); assay: nucleoplasmic GFP signal in HeLa cells over dark-light cycles
NE-tethered mCh-lamin A [2] = target: T1, NE-tethered mCh-lamin A; assay: NE/NP ratio of GFP signal in HeLa cells, before and after light
[3] = target: mCh tethered to early endosome [EE]; assay: cytosol-to-early-endosome translocation in HeLa cells under light
[4] = target: T2, plasma membrane targeting mCh (mCh-CAAX); assay: cytosol-to-plasma-membrane translocation in HeLa cells under light
T2 construct: also called mCh tethered to PM

T1 sequence (P02545 whole entry): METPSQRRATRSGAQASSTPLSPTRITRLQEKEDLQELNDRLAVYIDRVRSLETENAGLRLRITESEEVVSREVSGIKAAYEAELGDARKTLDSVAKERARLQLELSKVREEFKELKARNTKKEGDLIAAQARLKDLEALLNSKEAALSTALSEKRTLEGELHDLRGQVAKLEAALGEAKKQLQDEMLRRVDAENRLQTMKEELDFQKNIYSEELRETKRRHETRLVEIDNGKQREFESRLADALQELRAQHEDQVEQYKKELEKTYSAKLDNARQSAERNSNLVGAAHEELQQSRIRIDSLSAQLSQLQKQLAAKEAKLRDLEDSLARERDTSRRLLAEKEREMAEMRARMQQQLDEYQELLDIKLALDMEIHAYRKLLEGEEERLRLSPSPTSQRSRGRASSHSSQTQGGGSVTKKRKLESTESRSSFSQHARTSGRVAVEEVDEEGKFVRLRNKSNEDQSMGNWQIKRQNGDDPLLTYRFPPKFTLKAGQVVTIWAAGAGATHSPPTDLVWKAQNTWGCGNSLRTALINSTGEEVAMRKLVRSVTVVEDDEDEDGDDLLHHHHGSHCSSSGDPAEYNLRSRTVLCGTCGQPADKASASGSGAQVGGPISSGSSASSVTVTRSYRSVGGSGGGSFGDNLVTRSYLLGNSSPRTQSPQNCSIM

B1: GFP-sunbody (anti-mCherry nanobody LaM8 with LOV2 at S0 and S3) (VHH, not shown: large carriers)
chain: LATTLERIEKNFVITDPRLPDNPIIFASDSFLQLTEYSREEILGRNCRFLQGPETDRATVRKIRDAIDNQTEVTVQLINYTKSGKKFWNLFHLQPMRDQKGDVQYFIGVQLDGTEHVRDAAEREGVMLIKKTAENIDEAAKELKLMAQVQLVESGGGLVQAGGSLRLSCAVSGRPFSEYNLGWFRQAPGKEREFVARIRSSGTTVYTDSVKGRFSASRDNALERIEKNFVITDPRLPDNPIIFASDSFLQLTEYSREEILGRNCRFLQGPETDRATVRKIRDAIDNQTEVTVQLINYTKSGKKFWNLFHLQPMRDQKGDVQYFIGVQLDGTEHVRDAAEREGVMLIKKTAENIDEAAKNMGYLQLNSLEPEDTAVYYCAMSRVDTDSPAFYDYWGQGTQVTVSTPRS
notes: also called S0+S3; anti-mCh GFP-tagged sunbody
Question: What does the source list for B1?
Answer: half-life of light-triggered translocation to the antigen (t½, on) (NE-tethered mCh-lamin A [1]): 2.6 s; light-induced change in the NE/NP ratio (NE-tethered mCh-lamin A [2]): > 80%

B2: GFP-2xsunbody (dimeric concatemer of sunbody) (VHH, not shown: large carriers)
chain: LATTLERIEKNFVITDPRLPDNPIIFASDSFLQLTEYSREEILGRNCRFLQGPETDRATVRKIRDAIDNQTEVTVQLINYTKSGKKFWNLFHLQPMRDQKGDVQYFIGVQLDGTEHVRDAAEREGVMLIKKTAENIDEAAKELKLMAQVQLVESGGGLVQAGGSLRLSCAVSGRPFSEYNLGWFRQAPGKEREFVARIRSSGTTVYTDSVKGRFSASRDNALERIEKNFVITDPRLPDNPIIFASDSFLQLTEYSREEILGRNCRFLQGPETDRATVRKIRDAIDNQTEVTVQLINYTKSGKKFWNLFHLQPMRDQKGDVQYFIGVQLDGTEHVRDAAEREGVMLIKKTAENIDEAAKNMGYLQLNSLEPEDTAVYYCAMSRVDTDSPAFYDYWGQGTQVTVSTPRSLATTLERIEKNFVITDPRLPDNPIIFASDSFLQLTEYSREEILGRNCRFLQGPETDRATVRKIRDAIDNQTEVTVQLINYTKSGKKFWNLFHLQPMRDQKGDVQYFIGVQLDGTEHVRDAAEREGVMLIKKTAENIDEAAKELKLMAQVQLVESGGGLVQAGGSLRLSCAVSGRPFSEYNLGWFRQAPGKEREFVARIRSSGTTVYTDSVKGRFSASRDNALERIEKNFVITDPRLPDNPIIFASDSFLQLTEYSREEILGRNCRFLQGPETDRATVRKIRDAIDNQTEVTVQLINYTKSGKKFWNLFHLQPMRDQKGDVQYFIGVQLDGTEHVRDAAEREGVMLIKKTAENIDEAAKNMGYLQLNSLEPEDTAVYYCAMSRVDTDSPAFYDYWGQGTQVTVSTPRS
notes: also called tandem sunbody
Question: How did the “fold increase in the signal-to-background ratio against 1x sunbody” value [3] turn out when B2 was run?
Answer: > 2 fold

Question: What about the “fold increase in the signal-to-background ratio against 1x sunbody” value [4] of the same binder?
Answer: > 2 fold
